Results on 1 molecule are retold here after US20250092426, “CAS ENDONUCLEASES AND RELATED METHODS” (Flagship Pioneering Innovations VII, LLC, published 2025).

The target in this data set is T1, CasEnd-10 (synthetic construct).
T1 chain: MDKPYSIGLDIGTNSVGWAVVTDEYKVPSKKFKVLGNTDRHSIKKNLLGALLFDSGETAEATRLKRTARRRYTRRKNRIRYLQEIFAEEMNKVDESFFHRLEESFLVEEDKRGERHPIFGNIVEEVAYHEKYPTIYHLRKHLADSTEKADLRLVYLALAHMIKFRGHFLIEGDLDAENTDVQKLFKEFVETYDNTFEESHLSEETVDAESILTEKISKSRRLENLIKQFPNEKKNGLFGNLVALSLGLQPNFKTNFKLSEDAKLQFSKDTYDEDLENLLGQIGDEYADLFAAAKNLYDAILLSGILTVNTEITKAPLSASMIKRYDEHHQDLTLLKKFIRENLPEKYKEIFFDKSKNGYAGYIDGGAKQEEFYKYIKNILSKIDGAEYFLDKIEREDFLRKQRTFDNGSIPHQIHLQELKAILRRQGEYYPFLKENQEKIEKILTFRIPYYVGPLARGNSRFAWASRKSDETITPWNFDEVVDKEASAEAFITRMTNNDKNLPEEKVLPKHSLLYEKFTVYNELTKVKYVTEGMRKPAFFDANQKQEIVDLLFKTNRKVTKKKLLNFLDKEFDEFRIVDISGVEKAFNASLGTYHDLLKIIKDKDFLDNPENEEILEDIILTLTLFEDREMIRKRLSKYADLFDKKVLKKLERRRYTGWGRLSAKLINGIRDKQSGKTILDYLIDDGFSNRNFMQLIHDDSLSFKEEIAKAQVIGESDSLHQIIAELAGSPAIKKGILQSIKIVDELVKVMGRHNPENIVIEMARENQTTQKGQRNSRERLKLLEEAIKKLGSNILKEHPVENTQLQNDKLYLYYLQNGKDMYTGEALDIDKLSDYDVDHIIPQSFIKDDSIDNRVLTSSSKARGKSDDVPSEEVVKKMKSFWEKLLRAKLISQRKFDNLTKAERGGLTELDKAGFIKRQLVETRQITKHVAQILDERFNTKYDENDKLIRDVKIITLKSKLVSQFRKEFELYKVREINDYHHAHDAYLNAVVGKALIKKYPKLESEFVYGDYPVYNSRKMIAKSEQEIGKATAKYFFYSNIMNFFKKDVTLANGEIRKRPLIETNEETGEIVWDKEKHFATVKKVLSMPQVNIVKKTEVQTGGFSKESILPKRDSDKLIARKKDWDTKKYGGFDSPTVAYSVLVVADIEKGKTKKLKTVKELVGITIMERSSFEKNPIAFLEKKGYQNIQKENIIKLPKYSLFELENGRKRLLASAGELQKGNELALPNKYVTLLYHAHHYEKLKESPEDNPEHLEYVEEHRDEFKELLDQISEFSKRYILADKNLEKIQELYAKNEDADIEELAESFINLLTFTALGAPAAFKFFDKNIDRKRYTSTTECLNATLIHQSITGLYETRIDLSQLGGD
Briefly: cell_activity; +++; K562, second nick guide SEQ 380; PAM not stated. Here is the method: The ability of the candidate endonucleases, including endonucleases 1-38 (CasEnds 1-38) (set forth in Table 1 and SEQ ID NOS: 1-38, respectively), to mediate target nucleic acid editing in cells was assessed by amplicon sequencing of the endogenous hemoglobin subunit beta (eHBB) gene, wherein the percent of amplicons displaying the intended edit is measured. The editing system is comprised of a template RNA (designed to introduce the Single Nucleotide Polymorphism), a second nick guide RNA, and a fusion protein consisting of retroviral reverse transcriptase and the individual subject Cas endonuclease.
Briefly, 250 ng of plasmid DNA encoding the subject fusion protein (containing one of the subject CasEnds), 250 ng each of plasmid DNA encoding the template RNA and the second nick guide RNA were added to 15 μL Lonza SF buffer containing 250,000 K562 cells. Nucleofection was mediated utilizing program FF-120-DA on a Lonza nucleofector. The day of nucleofection was marked as day 0. At day 3, the cells were harvested and subjected to lysis buffer treatment overnight. Genomic DNA was extracted and used for targeted amplicon sequencing to evaluate the performance of each Cas endonucleases based on their percent edit efficiencies.

B1: HBB template RNA ; HBB protospacer (ssRNA ; dsDNA)
RNA: CAUGGUGCACCUGACUCCUGGUUUUAGAGCUAGAAAUAGCAAGUUAAAAUAAGGCUAGUCCGUUAUCAACUUGAAAAAGUGGCACCGAGUCGGUGCACGGCAGACUUCUCUGCCGGAGUCAGGUGC
DNA 1: CATGGTGCACCTGACTCCTG
DNA 2: CAGGAGTCAGGTGCACCATG
In the case of B1, the activity is ≥ 100 % of reference.
